Substrate: O=[N+]([O-])c1ccccc1O[C@@H]1O[C@H](COP(=O)(O)O)[C@H](O)[C@H](O)[C@H]1O
Experiment: purified protein
Assay type: biochemical, Lacticaseibacillus casei
Details: activity assay in 100 mM Tris-HCl pH 7.0, 37 °C, kinetics as in cited earlier work

B1: phospho-β-galactosidase LacG; 6x(His)LacG (Lacticaseibacillus casei BL23) (protein)
chain: MSKQLPQDFVMGGATAAYQVEGATKEDGKGRVLWDDFLDKQGRFKPDPAADFYHRYDEDLALAEKYGHQVIRVSIAWSRIFPDGAGEVEPRGVAFYHKLFADCAAHHIEPFVTLHHFDTPERLHEAGDWLSQEMLDDFVAYAKFCFEEFSEVKYWITINEPTSMAVQQYTSGTFPPAESGRFDKTFQAEHNQMVAHARIVNLYKSMQLGGQIGIVHALQTVYPYSDSAVDHHAAELQDALENRLYLDGTLAGEYHQETLALVKEILDANHQPMFQSTPQEMKAIDEAAHQLDFVGVNNYFSKWLRAYHGKSETIHNGDGTKGSSVARLQGVGEEKLPDGIETTDWDWSIYPRGMYDILMRIHNDYPLVPVTYVTENGIGLKESLPENATPDTVIEDPKRIDYVKKYLSAMADAIHDGANVKGYFIWSLQDQFSWTNGYSKRYGLFFVDFPTQNRYIKQSAEWFKSVSETHIIPD
notes: full coding region in pQE80 (BamHI/PstI), 6xHis tag (N-terminal by vector), E. coli BE50 host, purified; 55 kDa, calculated tagged mass 55,305 Da
B1 was tested, and the Km was 3000 µM.

Source: paper PMC5940811, “The lactose operon from Lactobacillus casei is involved in the transport and metabolism of the human milk oligosaccharide core-2 N-acetyllactosamine” (Scientific Reports, 2018)
